Among the data in PMC6271157, “High Efficiency Acetylcholinesterase Immobilization on DNA Aptamer Modified Surfaces” are Kd values, retold here.

Series [1] concerns the target T1, acetylcholinesterase (AChE) (electric eel, UniProt O42275 24-633). Briefly: ELONA; selection buffer, ionic strength ~0.15 M, 137 mM NaCl, 4 mM MgCl2; 8 mM Na2HPO4, 2 mM NaH2PO4, 2.7 mM KCl, 137 mM NaCl, 4 mM MgCl2, pH 7.4, room temperature, 2 h; wells coated with 10 nM AChE, blocked with 1% BSA; washes with 0.05% Tween 20. Particulars: protein: native; label: 5'-biotin, detected by streptavidin-HRP.

For series [2], the target named is T1, acetylcholinesterase (AChE). Briefly: ELONA; low ionic strength ~0.02 M, no NaCl, 4 mM MgCl2; 8 mM Na2HPO4, 2 mM NaH2PO4, 2.7 mM KCl, 137 mM NaCl, 4 mM MgCl2, pH 7.4, room temperature, 2 h; wells coated with 10 nM AChE, blocked with 1% BSA; washes with 0.05% Tween 20. To be noted: protein: native; label: 5'-biotin, detected by streptavidin-HRP.

T1 sequence (O42275 24-633): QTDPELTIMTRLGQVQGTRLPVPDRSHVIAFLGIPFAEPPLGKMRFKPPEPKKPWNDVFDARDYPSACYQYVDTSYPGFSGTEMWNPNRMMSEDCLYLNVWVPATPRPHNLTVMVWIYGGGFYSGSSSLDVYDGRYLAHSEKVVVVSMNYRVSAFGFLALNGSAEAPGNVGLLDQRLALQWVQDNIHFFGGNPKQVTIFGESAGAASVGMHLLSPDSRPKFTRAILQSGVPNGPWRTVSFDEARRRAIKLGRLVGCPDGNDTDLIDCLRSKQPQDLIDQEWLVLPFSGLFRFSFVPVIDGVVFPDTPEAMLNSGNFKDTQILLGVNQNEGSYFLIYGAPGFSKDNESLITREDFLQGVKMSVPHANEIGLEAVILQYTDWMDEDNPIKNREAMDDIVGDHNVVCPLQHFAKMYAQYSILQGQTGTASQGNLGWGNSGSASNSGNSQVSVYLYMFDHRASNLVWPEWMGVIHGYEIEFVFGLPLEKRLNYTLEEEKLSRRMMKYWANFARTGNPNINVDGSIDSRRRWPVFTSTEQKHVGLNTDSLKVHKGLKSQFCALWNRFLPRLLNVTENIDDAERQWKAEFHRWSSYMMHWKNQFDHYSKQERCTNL

B1: R15/19 (also R15/C19) (ssDNA)
DNA: AAGCATCCGCTGGTTGACTGTAGCTCTGGCAGACGTAGTGTGAAGGTACCAGCTATTGGGATCTTGGACCCTGCGAA
modifications: 5'-biotin (ELONA)
A word on the Kd: it is the constant that tells how readily two partners part at equilibrium. On to B1, for which the figures for the Kd in series [1] and in series [2] were 157 ± 42 pM and 243 ± 47 pM, respectively.
